Results reported in doi:10.1101/2021.03.09.434456 (bioRxiv, 2021).

B1: mouse Kirrel2 D1 (domain or fragment)
chain: PHFLQQPEDMVVLLGEEARLPCALGAYRGLVQWTKDGLALGGERDLPGWSRYWISGNSASGQHDLHIKPVELEDEASYECQASQAGLRSRPAQLHVMVP
B2: mouse Kirrel3 D1 (domain or fragment)
chain: VYSFSQQPQDQVVVSGQPVTLLCAIPEYDGFVLWIKDGLALGVGRDLSSYPQYLVVGNHLSGEHHLKILRAELQDDAVYECQAIQAAIRSRPARLTVLVP
B3: mouse Kirrel3 WT ectodomain (domain or fragment, UniProt Q8BR86 22-535, looked up)
chain: LQKRGCCLVLGYMAKDKFRRMNEGQVYSFSQQPQDQVVVSGQPVTLLCAIPEYDGFVLWIKDGLALGVGRDLSSYPQYLVVGNHLSGEHHLKILRAELQDDAVYECQAIQAAIRSRPARLTVLVPPDDPIILGGPVISLRAGDPLNLTCHADNAKPAASIIWLRKGEVINGATYSKTLLRDGKRESIVSTLFISPGDVENGQSIVCRATNKAIPGGKETSVTIDIQHPPLVNLSVEPQPVLEDNIVTFHCSAKANPAVTQYRWAKRGHIIKEASGELYRTTVDYTYFSEPVSCEVTNALGSTNLSRTVDVYFGPRMTSEPQSLLVDLGSDAVFSCAWIGNPSLTIVWMKRGSGVVLSNEKTLTLKSVRQEDAGKYVCRAVVPRVGAGEREVTLTVNGPPIISSTQTQHALHGEKGQIKCFIRSTPPPDRIAWSWKENVLESGTSGRYTVETVNTEEGVISTLTISNIVRADFQTIYNCTAWNSFGSDTEIIRLKEQGSEMKSGAGLEAESVPMA
B4: mouse Kirrel2 WT ectodomain (domain or fragment, UniProt Q7TSU7 20-507, looked up)
chain: SPHFLQQPEDMVVLLGEEARLPCALGAYRGLVQWTKDGLALGGERDLPGWSRYWISGNSASGQHDLHIKPVELEDEASYECQASQAGLRSRPAQLHVMVPPEAPQVLGGPSVSLVAGVPGNLTCRSRGDSRPAPELLWFRDGIRLDGSSFHQTTLKDKATGTVENTLFLTPSSHDDGATLICRARSQALPTGRDTAVTLSLQYPPMVTLSAEPQTVQEGEKVTFLCQATAQPPVTGYRWAKGGSPVLGARGPRLEVVADATFLTEPVSCEVSNAVGSANRSTALEVLYGPILQAKPKSVSVDVGKDASFSCVWRGNPLPRITWTRMGGSQVLSSGPTLRLPSVALEDAGDYVCRAEPRRTGLGGGKAQARLTVNAPPVVTALQPAPAFLRGPARLQCVVFASPAPDSVVWSWDEGFLEAGSLGRFLVEAFPAPEVEGGQGPGLISVLHISGTQESDFTTGFNCSARNRLGEGRVQIHLGRRDLLPTVR

Legend:
crystal structure = target: the molecule itself; experiment: crystal structure
AUC + SEC = target: the molecule itself; experiment: AUC + SEC
AUC = target: the molecule itself; experiment: AUC

Row | Protein | binding result (crystal structure) | koff (AUC + SEC) | Kd (AUC) | stoichiometry N (AUC)
1 | B1 | binds |  |  | 
2 | B2 | binds |  |  | 
3 | B3 |  | > 0.001 s⁻¹ | 210 nM | 2
4 | B4 |  | > 0.001 s⁻¹ | 900 nM | 2
